From the supplement of paper PMC7125110
± gives the standard error. Fewer inactive variants are shown than the library holds.

B1: glmS ribozyme (parent)
chain: AUAAAAGCGCCAGAACUACAGAAAUGUAGUUGACGAGGAGGAGGUUUAUCGAAUUUUCGGCGGAUGCCUCCAAA

Assays:
Conditions in all cases: with glucosamine-6-phosphate
[1] = variants of: B1; experiment: self-cleavage kobs at 160 uM GlcN6P; higher = faster cleavage; RNA array
In short: (§1)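 Barcoded ribozyme variants on sequenced MiSeq chips were transcribed in situ by E. coli RNA polymerase and followed at 37 °C through a hybridised Cy3 probe. Glucosamine-6-phosphate at 40 μM to 10 mM in HEPES/KCl/Mg(OAc)2 buffer was flowed in, and tiles were imaged over ~14 h. Signals were normalised to baseline and to non-cleaving reference variants, and per-tile medians were fit to one- or two-exponential decays to give kobs. Weighted Michaelis–Menten fits across concentrations gave kcat and KM.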

[2] = variants of: B1; experiment: self-cleavage kobs at 640 uM GlcN6P; higher = faster cleavage; RNA array
In short: as §1

[3] = variants of: B1; experiment: self-cleavage kobs at 2500 uM GlcN6P; higher = faster cleavage; RNA array
In short: as §1

[4] = variants of: B1; experiment: self-cleavage kobs at 10000 uM GlcN6P; higher = faster cleavage; RNA array
In short: as §1

| Variant | self-cleavage kobs at 160 uM GlcN6P [1] [s⁻¹] | self-cleavage kobs at 640 uM GlcN6P [2] [s⁻¹] | self-cleavage kobs at 2500 uM GlcN6P [3] [s⁻¹] | self-cleavage kobs at 10000 uM GlcN6P [4] [s⁻¹] |
| --- | --- | --- | --- | --- |
| G51U A52G C58U G59A | < 1e-05 | < 1e-05 | < 1e-05 |  |
| A6G A36C G38C |  | < 1e-05 |  | < 1e-05 |
| C8A G35A G59A C70U |  | < 1e-05 | < 1e-05 |  |
| G7C U45G A53U A64G |  | < 1e-05 |  |  |
| G7C C71A |  | < 1e-05 |  | < 1e-05 |
| C58G C67G | 5.68e-05 ± 1.1e-05 | 0.000101 ± 1.3e-05 | 5.23e-05 ± 1e-05 | 1.83e-05 ± 8.7e-06 |
| C8A G44C U46A |  | < 1e-05 | < 1e-05 |  |
| G7C G40U |  | < 1e-05 | < 1e-05 | < 1e-05 |
| G7U A33U G37U G63A |  | < 1e-05 | < 1e-05 |  |
| C8G A12G U49C |  | < 1e-05 |  |  |
| C8A C10G A15G C16G C50A G63U |  | < 1e-05 |  |  |
| C8A C11G G59C C61U |  | < 1e-05 | < 1e-05 |  |
| C50G G60A A64G | 8.18e-05 ± 2.1e-05 | 6.58e-05 ± 2.3e-05 | 0.000134 ± 5.2e-05 |  |
| G7C A15C A39U A42C U57A |  | < 1e-05 | < 1e-05 |  |
| A6G G9C G60C G63A C68U |  | < 1e-05 |  |  |
| A6G C11G G13C C61G |  | < 1e-05 | < 1e-05 |  |
| A6U G51C U56A U69G C70A |  | 0.000269 ± 8e-05 |  |  |
| G7A G44A U46C A48U |  | < 1e-05 | < 1e-05 |  |
| A6U A14C G51C |  | < 1e-05 | < 1e-05 |  |
| G7U A33C U47A |  | < 1e-05 | < 1e-05 |  |
| G7C C8G G9C C19A C61A |  | < 1e-05 | < 1e-05 |  |
| A6C A39G U57G |  | < 1e-05 | < 1e-05 |  |
| A6C A42U C70G |  | < 1e-05 | < 1e-05 |  |
| C61U C67U | < 1e-05 | < 1e-05 |  |  |
| A64U C70A | < 1e-05 |  |  | < 1e-05 |
| C8A A14G G29A A36U |  | < 1e-05 | < 1e-05 |  |
| U47A G63C | < 1e-05 | < 1e-05 | < 1e-05 |  |
| C8G A15U U56C |  | < 1e-05 | < 1e-05 | < 1e-05 |

| Variant | self-cleavage kobs at 160 uM GlcN6P [1] [s⁻¹] | self-cleavage kobs at 640 uM GlcN6P [2] [s⁻¹] | self-cleavage kobs at 2500 uM GlcN6P [3] [s⁻¹] | self-cleavage kobs at 10000 uM GlcN6P [4] [s⁻¹] |
| --- | --- | --- | --- | --- |
| C50G A53U | 0.00155 ± 0.00063 |  |  |  |
| G60U A64U C68U | < 1e-05 | < 1e-05 | < 1e-05 |  |
| C50A C70G | 0.001 ± 0.00045 | 7.68e-05 ± 1.2e-05 | 6.7e-05 ± 8.5e-06 |  |
| G7A G9U C68U |  | < 1e-05 |  |  |
| C8G A15G C16U U45G U49A |  | < 1e-05 | < 1e-05 |  |
| A53C G63A | < 1e-05 | < 1e-05 |  | < 1e-05 |
| G51U G63C C67G | < 1e-05 | < 1e-05 | < 1e-05 | < 1e-05 |
| A53C G60U A64U U65G | < 1e-05 | < 1e-05 |  |  |
| G7U G35U C58U C70A C71U |  | < 1e-05 |  |  |
| G51U U56C U57C G63U | < 1e-05 | < 1e-05 | < 1e-05 | < 1e-05 |
| A6U G35C A64C |  | < 1e-05 | < 1e-05 |  |
| A6U G9C A12C U55A |  | < 1e-05 | < 1e-05 |  |
| G7U G66A C67U |  | < 1e-05 | < 1e-05 |  |
| G7U A14G G60C C70A |  | < 1e-05 |  |  |
| C50G U55A | 9.39e-05 ± 2.2e-05 |  | 0.000374 ± 0.00012 |  |
| G7U U46A C68U |  | < 1e-05 | < 1e-05 |  |
| G7C A14C G44A G63A |  | < 1e-05 | < 1e-05 |  |
| G63U A64C | < 1e-05 | < 1e-05 | < 1e-05 | < 1e-05 |
| G51U C61G C71G | 0.000101 ± 2.2e-05 | 0.000494 ± 0.00014 | 9.55e-05 ± 2.1e-05 |  |
| A6G C11G C34U U45G |  | < 1e-05 |  |  |
| A6U G41A C58A |  | < 1e-05 |  |  |
| A6G A14C C34U |  | < 1e-05 |  |  |
| A6C C8G A48G G60U C68U |  | < 1e-05 | < 1e-05 |  |
| A6G G59A C67A |  | < 1e-05 | < 1e-05 |  |
| A6C G40C G60U |  | < 1e-05 |  |  |
| A48C G60A C61A | < 1e-05 |  |  |  |
| A6C G38A C50G C67U |  | 0.000113 ± 4.8e-05 | 7.23e-05 ± 1.8e-05 | 4.13e-05 ± 1.3e-05 |
